Results: US20190263932A1
Positions count from the first letter of the chain named.

B1: mAb D (antibody, human IgG1, kappa)
heavy: EVQLVESGGGLVKPGGSLRLSCAASGFTFSGVSINWVRQAPGKGLEWVSSETTSSGTIYYADSVKGRFTISRDNAKNSLYLQMNSLRAEDTAVYYCARSYYYGMDVWGQGTTVTVSSASTKGPSVFPLAPSSKSTSGGTAALGCLVKDYFPEPVTVSWNSGALTSGVHTFPAVLQSSGLYSLSSVVTVPSSSLGTQTYICNVNHKPSNTKVDKRVEPKSCDKTHTCPPCPAPEAEGAPSVFLFPPKPKDTLMISRTPEVTCVVVDVSHEDPEVKFNWYVDGVEVHNAKTKPREEQYNSTYRVVSVLTVLHQDWLNGKEYKCKVSNKALPSSIEKTISKAKGQPREPQVYTLPPSREEMTKNQVSLTCLVKGFYPSDIAVEWESNGQPENNYKTTPPVLDSDGSFFLYSKLTVDKSRWQQGNVFSCSVMHEALHNHYTQKSLSLSPGK
light: DIVMTQTPLSSPVTLGQPASISCRSSQSLVHRAGNTYLSWLQQRPGQPPRLLIYKISNRFSGVPDRFSGSGAGTDFTLKISRVEAEDVGVYYCMQARQFPLTFGGGTKVEIKRTVAAPSVFIFPPSDEQLKSGTASVVCLLNNFYPREAKVQWKVDNALQSGNSQESVTEQDSKDSTYSLSSTLTLSKADYEKHKVYACEVTHQGLSSPVTKSFNRGEC
B2: mAb E (antibody, human IgG1, kappa)
heavy: B1 heavy
light: B1 light with A33Q

Molecular target: human TrkA receptor expressed in transfected 3T3 fibroblast cells (human), P04629
Sequence (P04629 33-796): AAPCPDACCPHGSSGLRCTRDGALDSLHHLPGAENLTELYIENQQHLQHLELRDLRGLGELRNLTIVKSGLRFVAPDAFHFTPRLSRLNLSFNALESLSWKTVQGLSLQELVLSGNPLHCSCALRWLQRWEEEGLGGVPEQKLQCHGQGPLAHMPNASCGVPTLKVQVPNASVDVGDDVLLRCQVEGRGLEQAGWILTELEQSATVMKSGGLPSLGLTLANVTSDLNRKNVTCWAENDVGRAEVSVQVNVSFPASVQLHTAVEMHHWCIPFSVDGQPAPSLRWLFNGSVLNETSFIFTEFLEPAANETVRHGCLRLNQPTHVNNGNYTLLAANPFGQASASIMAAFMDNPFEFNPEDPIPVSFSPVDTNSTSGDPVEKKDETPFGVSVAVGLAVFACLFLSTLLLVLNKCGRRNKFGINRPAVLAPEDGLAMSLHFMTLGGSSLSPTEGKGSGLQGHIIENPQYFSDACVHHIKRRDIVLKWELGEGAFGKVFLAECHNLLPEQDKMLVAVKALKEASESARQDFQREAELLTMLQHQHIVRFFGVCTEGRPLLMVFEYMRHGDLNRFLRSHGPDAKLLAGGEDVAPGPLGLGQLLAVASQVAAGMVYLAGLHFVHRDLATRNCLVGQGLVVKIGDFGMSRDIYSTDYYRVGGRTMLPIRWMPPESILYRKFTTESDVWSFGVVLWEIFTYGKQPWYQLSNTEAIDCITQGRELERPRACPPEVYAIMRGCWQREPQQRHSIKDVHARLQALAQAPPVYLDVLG
Test: cell-based or functional assay

Binder | % Max Inhibition, pTrkA [%] | % Max stimulation, pTrkA [%] | EC50 (nM), pTrkA [nM] | IC50 (nM), pTrkA [nM] | pTrkA counts per second, 0.1 pM mAb, no NGF (counts per second) | pTrkA counts per second, 1 pM mAb, no NGF (counts per second) | pTrkA counts per second, 10 pM mAb, no NGF (counts per second) | pTrkA counts per second, 100 pM mAb, no NGF (counts per second) | pTrkA counts per second, 1 nM mAb, no NGF (counts per second) | pTrkA counts per second, 10 nM mAb, no NGF (counts per second) | pTrkA counts per second, 100 nM mAb, no NGF (counts per second) | pTrkA counts per second, 1 uM mAb, no NGF (counts per second) | pTrkA counts per second, NGF +0.1 pM mAb (counts per second) | pTrkA counts per second, NGF +1 pM mAb (counts per second) | pTrkA counts per second, NGF +10 pM mAb (counts per second) | pTrkA counts per second, NGF +100 pM mAb (counts per second) | pTrkA counts per second, NGF +1 nM mAb (counts per second) | pTrkA counts per second, NGF +10 nM mAb (counts per second) | pTrkA counts per second, NGF +100 nM mAb (counts per second) | pTrkA counts per second, NGF +1 uM mAb (counts per second) | other results
B1 | 66 | 27 | 0.28 | 0.12 | 277000 | 398000 | 335000 | 486000 | 935000 | 1.16e+06 | 994000 | 1.02e+06 | 2.56e+06 | 2.79e+06 | 2.68e+06 | 2.01e+06 | 1.35e+06 | 1.2e+06 | 1.44e+06 | 971000 | 
B2 | 57 | 31 | 0.29 | 0.48 | 178000 | 181000 | 194000 | 264000 | 487000 | 600000 | 605000 | 483000 | 1.85e+06 | 2.19e+06 | 2.76e+06 | 2.78e+06 | 838000 | 800000 | 739000 | 630000 | % Inh., Human pTrkA: 56%
